Experimental data: article PMC3410417 (The Journal of Cell Biology, 2012)

Target: Myc-mGlu5a-Rluc8 (UniProt P31424-2 21-1171)
Assay: FRET or BRET

B1: YFP-Homer3 (natural protein, UniProt Q9Z2X5 1-358, looked up)
chain: MSTAREQPIFSTRAHVFQIDPATKRNWIPAGKHALTVSYFYDATRNVYRIISIGGAKAIINSTVTPNMTFTKTSQKFGQWADSRANTVYGLGFGSEQQLTQFAEKFQEVKEAARLAREKSQDGGELTSTALAMASHQVPPSPLVSTNGPEEKLFRSQSADAPGPTERERLKKMLSEGSVGEVQWEAEFFALQDSNQRLAGALREANAAATQWRQQLEVQRAEAEHLRQRVAELEAQVAAEPVRAGEKEATSQSVEQLEARVQTKDQEIQTLKNQSTGPREAPDTAEREETQQQVQDLETRNAELEQQLRAMESNLEEARAERERARAEVGRAAQLLDVRLFELSELREGLARLAEAAP
BRET ratio in the spine before TAT-Homer1a (% of mean BRET in the shaft): 364%
